Results as given in patent US20250154198A1, “PEPTIDE INHIBITORS OF INTERLEUKIN-23 RECEPTOR” (Zealand Pharma A/S, priority 2021, published 2025).
*1 amine or outer side, *2 acyl side, *3 side chain or, on linkers, in order; H or OH if unused. Bridges are numbered along the chain shown (N, C = ends). [ ]: non-standard residue; d: D form. Trp(1-Me) = Cn1cc(C[C@H](N)C(=O)O)c2ccccc21; 2Nal = N[C@@H](Cc1ccc2ccccc2c1)C(=O)O; AEF = NCCOc1ccc(C[C@H](N)C(=O)O)cc1; αMeL = CC(C)C[C@](C)(N)C(=O)O; CH2COCH2 = O=C(C[*:1])C[*:2]; αMeK = C[C@](N)(CCCCN)C(=O)O

T1: human IL-23R endogenously expressed on DB cells (CRL-2289) (human, UniProt Q5VWK5 24-629)
T1 sequence (looked up): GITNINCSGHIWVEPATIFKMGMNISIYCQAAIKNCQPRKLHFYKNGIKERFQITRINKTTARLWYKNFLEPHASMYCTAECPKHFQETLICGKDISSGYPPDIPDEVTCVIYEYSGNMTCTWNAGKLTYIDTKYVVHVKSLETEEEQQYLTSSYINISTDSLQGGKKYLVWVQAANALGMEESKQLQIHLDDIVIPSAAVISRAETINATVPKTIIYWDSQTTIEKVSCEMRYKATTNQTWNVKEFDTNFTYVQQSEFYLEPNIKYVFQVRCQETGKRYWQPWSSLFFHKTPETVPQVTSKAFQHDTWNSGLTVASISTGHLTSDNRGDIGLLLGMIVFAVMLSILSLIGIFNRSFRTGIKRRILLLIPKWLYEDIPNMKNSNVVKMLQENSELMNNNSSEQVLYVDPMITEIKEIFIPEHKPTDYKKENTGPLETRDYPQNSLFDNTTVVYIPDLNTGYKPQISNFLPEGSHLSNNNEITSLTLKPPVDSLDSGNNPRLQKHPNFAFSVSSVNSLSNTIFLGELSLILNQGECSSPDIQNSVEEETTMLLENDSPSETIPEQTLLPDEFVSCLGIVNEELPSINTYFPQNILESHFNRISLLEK

T2: Nluc-IL23R fusion protein (human, UniProt Q5VWK5 22-629)
T2 construct: range 22-629; Stably expressed in HEK293 cells; also called hIL-23R; human IL-23R fused to a Nanoluc luciferase enzyme; not shown: Nanoluc luciferase (Promega N1371 plasmid) at the N-terminus
T2 sequence (looked up): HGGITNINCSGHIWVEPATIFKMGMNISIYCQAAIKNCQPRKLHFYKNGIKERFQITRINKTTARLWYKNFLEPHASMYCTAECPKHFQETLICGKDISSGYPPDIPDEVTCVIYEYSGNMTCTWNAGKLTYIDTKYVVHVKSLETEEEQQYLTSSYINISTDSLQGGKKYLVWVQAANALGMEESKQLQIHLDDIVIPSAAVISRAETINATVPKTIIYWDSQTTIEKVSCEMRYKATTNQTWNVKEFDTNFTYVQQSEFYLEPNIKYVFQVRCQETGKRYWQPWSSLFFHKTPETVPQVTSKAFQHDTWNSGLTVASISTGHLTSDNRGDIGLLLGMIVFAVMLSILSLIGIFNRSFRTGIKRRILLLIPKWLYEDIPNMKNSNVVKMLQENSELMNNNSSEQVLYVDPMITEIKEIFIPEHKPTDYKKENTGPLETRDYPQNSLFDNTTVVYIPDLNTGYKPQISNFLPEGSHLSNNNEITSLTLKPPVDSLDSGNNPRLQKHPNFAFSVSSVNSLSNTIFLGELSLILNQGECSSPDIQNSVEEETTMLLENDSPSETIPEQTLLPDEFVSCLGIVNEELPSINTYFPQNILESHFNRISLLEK

B1: Compound 28 (peptide)
peptide: Ac-DKSCWQC[2Nal][2Nal]LER-NH2
modifications: lactam 2-11; linker 4-7 via CH2COCH2
SMILES: CC(=O)N[C@@H](CC(=O)O)C(=O)N[C@H]1CCCCNC(=O)CC[C@@H](C(=O)N[C@@H](CCCNC(=N)N)C(N)=O)NC(=O)[C@H](CC(C)C)NC(=O)[C@H](Cc2ccc3ccccc3c2)NC(=O)[C@H](Cc2ccc3ccccc3c2)NC(=O)[C@@H]2CSCC(=O)CSC[C@H](NC(=O)[C@H](CO)NC1=O)C(=O)N[C@@H](Cc1c[nH]c3ccccc13)C(=O)N[C@@H](CCC(N)=O)C(=O)N2
B2: Compound 61 (peptide)
peptide: Ac-DESCWQCW[2Nal][αMeK]KENG-NH2
modifications: lactam 2-11; linker 4-7 via CH2COCH2
SMILES: CC(=O)N[C@@H](CC(=O)O)C(=O)N[C@H]1CCC(=O)NCCCC[C@@H](C(=O)N[C@@H](CCC(=O)O)C(=O)N[C@@H](CC(N)=O)C(=O)NCC(N)=O)NC(=O)[C@](C)(CCCCN)NC(=O)[C@H](Cc2ccc3ccccc3c2)NC(=O)[C@H](Cc2c[nH]c3ccccc23)NC(=O)[C@@H]2CSCC(=O)CSC[C@H](NC(=O)[C@H](CO)NC1=O)C(=O)N[C@@H](Cc1c[nH]c3ccccc13)C(=O)N[C@@H](CCC(N)=O)C(=O)N2
B3: Compound 58 (peptide)
peptide: Ac-DESCWQCW[2Nal][αMeL]KENG-NH2
modifications: lactam 2-11; linker 4-7 via CH2COCH2
SMILES: CC(=O)N[C@@H](CC(=O)O)C(=O)N[C@H]1CCC(=O)NCCCC[C@@H](C(=O)N[C@@H](CCC(=O)O)C(=O)N[C@@H](CC(N)=O)C(=O)NCC(N)=O)NC(=O)[C@](C)(CC(C)C)NC(=O)[C@H](Cc2ccc3ccccc3c2)NC(=O)[C@H](Cc2c[nH]c3ccccc23)NC(=O)[C@@H]2CSCC(=O)CSC[C@H](NC(=O)[C@H](CO)NC1=O)C(=O)N[C@@H](Cc1c[nH]c3ccccc13)C(=O)N[C@@H](CCC(N)=O)C(=O)N2
B4: Compound 59 (peptide)
peptide: Ac-DESCWQCW[2Nal][αMeL]KNG-NH2
modifications: lactam 2-11; linker 4-7 via CH2COCH2
SMILES: CC(=O)N[C@@H](CC(=O)O)C(=O)N[C@H]1CCC(=O)NCCCC[C@@H](C(=O)N[C@@H](CC(N)=O)C(=O)NCC(N)=O)NC(=O)[C@](C)(CC(C)C)NC(=O)[C@H](Cc2ccc3ccccc3c2)NC(=O)[C@H](Cc2c[nH]c3ccccc23)NC(=O)[C@@H]2CSCC(=O)CSC[C@H](NC(=O)[C@H](CO)NC1=O)C(=O)N[C@@H](Cc1c[nH]c3ccccc13)C(=O)N[C@@H](CCC(N)=O)C(=O)N2
B5: Compound 32 (peptide)
peptide: KSCWQCWXLER
HELM: PEPTIDE1{[ac].K.S.C.W.Q.C.W.[Cn1cc(C[C@H](N[*:1])C(=O)[*:2])c2ccccc21].L.E.R.[am]}|CHEM1{[O=C(C[*:1])C[*:2]]}$PEPTIDE1,PEPTIDE1,2:R3-11:R3|PEPTIDE1,CHEM1,4:R3-1:R1|PEPTIDE1,CHEM1,7:R3-1:R2$$$V2.0
SMILES: CC(=O)N[C@H]1CCCCNC(=O)CC[C@@H](C(=O)N[C@@H](CCCNC(=N)N)C(N)=O)NC(=O)[C@H](CC(C)C)NC(=O)[C@H](Cc2cn(C)c3ccccc23)NC(=O)[C@H](Cc2c[nH]c3ccccc23)NC(=O)[C@@H]2CSCC(=O)CSC[C@H](NC(=O)[C@H](CO)NC1=O)C(=O)N[C@@H](Cc1c[nH]c3ccccc13)C(=O)N[C@@H](CCC(N)=O)C(=O)N2
B6: Compound 60 (peptide)
peptide: Ac-DESCWQCW[2Nal][αMeL]KG-NH2
modifications: lactam 2-11; linker 4-7 via CH2COCH2
SMILES: CC(=O)N[C@@H](CC(=O)O)C(=O)N[C@H]1CCC(=O)NCCCC[C@@H](C(=O)NCC(N)=O)NC(=O)[C@](C)(CC(C)C)NC(=O)[C@H](Cc2ccc3ccccc3c2)NC(=O)[C@H](Cc2c[nH]c3ccccc23)NC(=O)[C@@H]2CSCC(=O)CSC[C@H](NC(=O)[C@H](CO)NC1=O)C(=O)N[C@@H](Cc1c[nH]c3ccccc13)C(=O)N[C@@H](CCC(N)=O)C(=O)N2
B7: Compound 25 (peptide)
peptide: Ac-KSC[2Nal]QCW[2Nal]LER-NH2
modifications: lactam 1-10; linker 3-6 via CH2COCH2
SMILES: CC(=O)N[C@H]1CCCCNC(=O)CC[C@@H](C(=O)N[C@@H](CCCNC(=N)N)C(N)=O)NC(=O)[C@H](CC(C)C)NC(=O)[C@H](Cc2ccc3ccccc3c2)NC(=O)[C@H](Cc2c[nH]c3ccccc23)NC(=O)[C@@H]2CSCC(=O)CSC[C@H](NC(=O)[C@H](CO)NC1=O)C(=O)N[C@@H](Cc1ccc3ccccc3c1)C(=O)N[C@@H](CCC(N)=O)C(=O)N2
B8: Compound 27 (peptide)
peptide: Ac-KSC[Trp(1-Me)]QCW[2Nal]LER-NH2
modifications: lactam 1-10; linker 3-6 via CH2COCH2
SMILES: CC(=O)N[C@H]1CCCCNC(=O)CC[C@@H](C(=O)N[C@@H](CCCNC(=N)N)C(N)=O)NC(=O)[C@H](CC(C)C)NC(=O)[C@H](Cc2ccc3ccccc3c2)NC(=O)[C@H](Cc2c[nH]c3ccccc23)NC(=O)[C@@H]2CSCC(=O)CSC[C@H](NC(=O)[C@H](CO)NC1=O)C(=O)N[C@@H](Cc1cn(C)c3ccccc13)C(=O)N[C@@H](CCC(N)=O)C(=O)N2
B9: Compound 47 (peptide)
peptide: Ac-KSCWQC[AEF][2Nal][αMeL]ER-NH2
modifications: lactam 1-10; linker 3-6 via CH2COCH2
SMILES: CC(=O)N[C@H]1CCCCNC(=O)CC[C@@H](C(=O)N[C@@H](CCCNC(=N)N)C(N)=O)NC(=O)[C@](C)(CC(C)C)NC(=O)[C@H](Cc2ccc3ccccc3c2)NC(=O)[C@H](Cc2ccc(OCCN)cc2)NC(=O)[C@@H]2CSCC(=O)CSC[C@H](NC(=O)[C@H](CO)NC1=O)C(=O)N[C@@H](Cc1c[nH]c3ccccc13)C(=O)N[C@@H](CCC(N)=O)C(=O)N2
B10: Compound 55 (peptide)
peptide: DEQCWQCYWXKR
HELM: PEPTIDE1{[ac].D.E.Q.C.W.Q.C.Y.W.[CC(C)C[C@](C)(N[*:1])C(=O)[*:2]].K.R.[am]}|CHEM1{[O=C(C[*:1])C[*:2]]}$PEPTIDE1,PEPTIDE1,3:R3-12:R3|PEPTIDE1,CHEM1,5:R3-1:R1|PEPTIDE1,CHEM1,8:R3-1:R2$$$V2.0
SMILES: CC(=O)N[C@@H](CC(=O)O)C(=O)N[C@H]1CCC(=O)NCCCC[C@@H](C(=O)N[C@@H](CCCNC(=N)N)C(N)=O)NC(=O)[C@](C)(CC(C)C)NC(=O)[C@H](Cc2c[nH]c3ccccc23)NC(=O)[C@H](Cc2ccc(O)cc2)NC(=O)[C@@H]2CSCC(=O)CSC[C@H](NC(=O)[C@H](CCC(N)=O)NC1=O)C(=O)N[C@@H](Cc1c[nH]c3ccccc13)C(=O)N[C@@H](CCC(N)=O)C(=O)N2
B11: Compound 31 (peptide)
peptide: KSCWQCWXLER
HELM: PEPTIDE1{[ac].K.S.C.W.Q.C.W.[O=C([C@H](Cc1ccc(F)cc1)N[*:1])[*:2]].L.E.R.[am]}|CHEM1{[O=C(C[*:1])C[*:2]]}$PEPTIDE1,PEPTIDE1,2:R3-11:R3|PEPTIDE1,CHEM1,4:R3-1:R1|PEPTIDE1,CHEM1,7:R3-1:R2$$$V2.0
SMILES: CC(=O)N[C@H]1CCCCNC(=O)CC[C@@H](C(=O)N[C@@H](CCCNC(=N)N)C(N)=O)NC(=O)[C@H](CC(C)C)NC(=O)[C@H](Cc2ccc(F)cc2)NC(=O)[C@H](Cc2c[nH]c3ccccc23)NC(=O)[C@@H]2CSCC(=O)CSC[C@H](NC(=O)[C@H](CO)NC1=O)C(=O)N[C@@H](Cc1c[nH]c3ccccc13)C(=O)N[C@@H](CCC(N)=O)C(=O)N2

Molecular target: T1, human IL-23R endogenously expressed on …
Assay: cell-based or functional assay

IC50 (pSTAT3) | Binder
27.4 nM | B1
> 1 µM | B2
597 nM | B3
297 nM | B4
118 nM | B5
666 nM | B6
> 1 µM | B7
15.5 nM | B8
17.2 nM | B9
> 1 µM | B10
968 nM | B11

Molecular target: T2, Nluc-IL23R fusion protein
Assay: BRET displacement of TAMRA-labelled peptide, Nluc-IL23R membranes

Ki | Binder
4.52 nM | B1
436 nM | B2
201 nM | B3
139 nM | B4
14.2 nM | B5
212 nM | B6
185 nM | B7
1.77 nM | B8
0.624 nM | B9
272 nM | B10
76.3 nM | B11
